Our source for the Inhibition, % of Ramos cell apoptosis and IC50 values is patent US20240383994A1.

The target in test [1] is human CD40 (hCD40), full length, on cells (human) (UniProt P25942). In words: cell-based or functional assay.
Test [2] deals with cynoCD40-mFc (monkey (cyno)). In words: flow cytometry, blocking of cynoCD40-mFc (2 µg/mL) binding to CHO-K1-cynoCD40L cells. In general terms: Flow cytometry measures light scatter and fluorescence of single cells or particles in a stream.
Chain of cynoCD40-mFc (monkey (cyno)) (chain, as listed by the source limits assumed, form in doubt): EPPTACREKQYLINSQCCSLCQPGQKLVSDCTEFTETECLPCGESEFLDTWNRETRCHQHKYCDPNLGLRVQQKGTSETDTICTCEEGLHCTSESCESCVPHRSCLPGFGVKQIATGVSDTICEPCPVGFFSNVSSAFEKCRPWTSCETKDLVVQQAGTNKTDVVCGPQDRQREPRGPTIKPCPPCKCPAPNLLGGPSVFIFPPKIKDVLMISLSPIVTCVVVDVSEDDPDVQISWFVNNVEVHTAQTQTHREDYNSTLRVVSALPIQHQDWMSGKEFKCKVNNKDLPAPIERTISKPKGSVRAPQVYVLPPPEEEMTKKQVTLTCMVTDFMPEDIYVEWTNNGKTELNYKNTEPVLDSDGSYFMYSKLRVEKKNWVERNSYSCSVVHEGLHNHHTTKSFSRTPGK

Chain of human CD40 (hCD40), full length, on cells (human) (P25942 21-277 limits assumed): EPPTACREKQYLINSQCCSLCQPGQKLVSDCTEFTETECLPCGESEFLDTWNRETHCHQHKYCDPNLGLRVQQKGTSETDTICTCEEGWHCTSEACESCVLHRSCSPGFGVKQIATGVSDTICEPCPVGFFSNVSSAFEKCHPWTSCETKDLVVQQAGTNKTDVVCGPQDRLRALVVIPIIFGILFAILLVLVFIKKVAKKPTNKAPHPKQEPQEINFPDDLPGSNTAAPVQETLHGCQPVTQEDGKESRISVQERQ

Regarding IgG4 isotype control antibody, in test [1], the Inhibition, % of Ramos cell apoptosis at 0.064 ng/L (so in the source) is -12%; the Inhibition, % of Ramos cell apoptosis at 0.32 ng/L (so in the source) was -9%; the Inhibition, % of Ramos cell apoptosis at 1.6 ng/L (so in the source) is -10%; the Inhibition, % of Ramos cell apoptosis at 8 ng/L (so in the source) stood at 0%. Also, in test [1], the Inhibition, % of Ramos cell apoptosis at 40 ng/L (so in the source) was -20%; the Inhibition, % of Ramos cell apoptosis at 200 ng/L (so in the source) is -6%; the Inhibition, % of Ramos cell apoptosis at 1000 ng/L (so in the source) was -3%.

Consider Iscalimab (CFZ533) (antibody), for which, in test [2], the IC50 – broadly, the concentration that inhibits the measured activity by half – was determined as 0.0241 µM.
